Test results as given in paper doi:10.1101/860916 (bioRxiv, 2019).

T1: FtsZ of S. coelicolor, C-terminal His-tag fusion (Streptomyces coelicolor, UniProt P45500 1-399)
T1 sequence (looked up): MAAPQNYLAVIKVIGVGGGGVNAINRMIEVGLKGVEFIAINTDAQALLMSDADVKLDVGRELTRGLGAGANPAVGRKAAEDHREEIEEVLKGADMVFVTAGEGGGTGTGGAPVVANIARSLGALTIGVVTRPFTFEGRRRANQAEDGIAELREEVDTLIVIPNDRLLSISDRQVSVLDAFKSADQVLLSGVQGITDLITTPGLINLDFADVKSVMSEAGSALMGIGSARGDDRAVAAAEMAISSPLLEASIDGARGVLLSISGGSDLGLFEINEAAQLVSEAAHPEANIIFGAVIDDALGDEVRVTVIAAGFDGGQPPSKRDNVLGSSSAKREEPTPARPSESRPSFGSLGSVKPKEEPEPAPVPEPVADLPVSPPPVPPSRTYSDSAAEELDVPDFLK


Legend:
[1] = molecular target: SsgB of S. coelicolor, wild type, His6-tagged (Streptomyces coelicolor) (UniProt Q9L268); test: crystal structure
[2] = molecular target: SsgB of S. coelicolor, wild type, His6-tagged (Streptomyces coelicolor) (UniProt Q9L268); test: SEC
[3] = molecular target: T1, FtsZ of S. coelicolor, C-terminal …; test: co-sedimentation

Molecule | stoichiometry N [1] | stoichiometry N [2] | binding result [3]
SsgB of S. coelicolor, wild type, His6-tagged (from UniProt Q9L268 1-137) (natural protein) | 3 | 3 | 
SsgB of S. coelicolor, wild type, His6-tagged (natural protein, Streptomyces coelicolor, UniProt Q9L268 1-137, looked up) MNTTVSCELHLRLVVSSESSLPVPAGLRYDTADPYAVHATFHTGAEETVEWVFARDLLAEGLHRPTGTGDVRVWPSRSHGQGVVCIALSSPEGEALLEAPARALESFLKRTDAAVPPGTEHRHFDLDQELSHILAES |  |  | binds
SsgB E120G of S. coelicolor, His6-tagged (natural protein, Streptomyces coelicolor, UniProt Q9L268 1-137, looked up) MNTTVSCELHLRLVVSSESSLPVPAGLRYDTADPYAVHATFHTGAEETVEWVFARDLLAEGLHRPTGTGDVRVWPSRSHGQGVVCIALSSPEGEALLEAPARALESFLKRTDAAVPPGTGHRHFDLDQELSHILAES |  |  | binds
SsgB E120A of S. coelicolor, His6-tagged (natural protein, Streptomyces coelicolor, UniProt Q9L268 1-137, looked up) MNTTVSCELHLRLVVSSESSLPVPAGLRYDTADPYAVHATFHTGAEETVEWVFARDLLAEGLHRPTGTGDVRVWPSRSHGQGVVCIALSSPEGEALLEAPARALESFLKRTDAAVPPGTAHRHFDLDQELSHILAES |  |  | binds
